In the domain aggregation screens of Martell et al. (2025):

Test: soluble fraction after stress (log2 fold change); higher = more stays soluble; pooled small domains, quantitative proteomics
Conditions: stress: pH 4
Procedure, shortened: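 Pooled custom libraries of small protein domains were stressed at pH 4 and then measured by high-throughput quantitative proteomics. The fold change in the amount of each domain that stays soluble after the acid stress serves as a measure of aggregation propensity. Fold changes are given on a log2 scale, and higher values mean more of the domain stayed soluble.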

| Sequence | soluble fraction (log2) |
| --- | --- |
| HMVVMKGKVKWFNKNKGYGFIITDDNKEYFVHWKSIVTNSPRELKVLEQDELVTFDLMETDKGIQAINII | -1.22 |
| HMTLDDSIALGRSLLDKGLMDFGTNLANLAEDKLRDFLSQQRYENLDDLFADIARGNRLPMFTAQQLLS | -0.481 |
| HMQTASVRFADGQLEVKQKGLQRVSVYSLNGMTVANKAVQGQDYVTISLPRAAYIVKITTQNGSFTKVI | 0.218 |
| HMEKVTPEMIAEYNALAKKYNSNPEVVFKKKEIQRLKYIYSLMSEKQKETAEVFPNIPPPPPT | -0.599 |
| HMGTGVEQGKQYRTLKRDFDGASGIKVNGDFYRLRTSDTGMTELPAGTEVTFERFDGTTAVVHT | 0.196 |
| HMEYSYKLIDLLVDRFSEEGVDPEEAREYINLFHRFSQGLDPDKRDITKYSWDELYRTVNDKKDS | -0.344 |
| HMSGGNTSAFKGKLNYEYRGNDTIITGSTYPVKELIKKAGGRWDPGSSAWIIKGRHVSDNEIF | -0.317 |
| HMHQKYIITGTRDTYVVSQGETLRTIAEHVYGSRGYARYIIEHNHITHPDDIPVGLTIRLPELELNPDYR | -0.209 |
| HMPLIPIAIELARHALPSLIGAIAGDKSEKVAKEVVDAALKTTGKTTPDEALHALQADPQLAHEYRLSLL | -0.466 |
| HMAVTGRVDLRIKPWGYVSVDGAAKVSSPPTMQLKLAPGRHEIEITNPAGAAVTKTVDVIAGKSVTVQHN | 0.19 |
| HMSQAVEISSVKTQIDGKSYYLHTIKQGQTLYGISKAYGVSVEELTTVNPETSKGLKVGQIIKVPDTKT | -0.303 |
| HMFDGRSDAEKTLDLIKTAIDNILKGGAIQEYKIGTRTAKKYDMAELQVLKGEYAAMVAREKQAETMA | -0.481 |
| HMPGRLSRREVEVIELTARGLPAAEMAVRLGISANTIEFHRRRIMQKLGVANAAEMVRRATELGW | -0.905 |
| HMNYVFVLNEHGVRQTSYVVGLHADTLEKTEKLAKQTYPTSTIISGDSEMQSQFISGKAYVNGEFVDP | -0.192 |
| HMQVIDNHWRPSRDALDILLRDGISEHFIEDAIPEFILYWRERGTQDSNWNSRFLQHIRLQWARYTNAV | -0.936 |
| HMAHILDLMELKQILRLHMDGLSNRRISDTLGIHRNTINSYVSQFKASKHGIEELLKLSDYELAQLFP | -1.39 |
| HMGQPRPLTAEDFDFLSDDEIAEMRKALSNGEMLRLRELIAQIGEKRPFLAERLLVLAKQYNYEDLSRLLE | -0.831 |
| HMDIVGAINKIESMKQDRYLAMHPYSITHSADGYYRTYLPADDGKRKQIKKKSKSDLEKVVIDYWTKRS | ≥ 0.43 |
| HMGVDMAPESIVGKKGVAATELRPAGKVEIHGQVYDAVSVGMFIKRGTGVKVVRYEAAQIYVEPE | -0.112 |
| HMQDIDIVDLKRISELIYQKYNYDFRNYAMSSFKRRVQRIIELKKLTVDGLIKRLNDTPSFINEFLDELTV | -0.2 |
| HMKKLTAEEIQEAKDILEKIQEIPNFKKIFGDDTIKALENSTKTGVLLPDNIISKIHTLMIRFGIK | -0.248 |
| HMNPSKEFNMSDLLKAKMVGDVSAAKRREKAGALLHIGYGNAKTFLKKLNHFSISREEWDKVIAAMEEF | 0.0295 |
| HMNLSDIETWLRELSLEKYALAFSEAEIDFETLPELTEDDLKEVGLPVGPRRKVWGAIQLLRTTD | -1.37 |
| HMAEKAVELTENEKAIQTILSNGALEIGELKTKLELSGKQWDVALKGLAKHGITQVSKVEGVVTVGL | 0.124 |
| HMEDDPIYEQVMIFLLDKQITSAPELERRFKITHQRAIELLAQMEKTGIVSTMGHAGKRDVLT | -0.355 |
| HMSSFIEAIKQSGTDSLDVIMKNGRVYRYVGIDADRLGYLLEPHQQKLSLEESIGRFYIDYIKGIYEAIE | -1.05 |
| HMSKHLWNKVLPKVTTANITNLINQAIRKGEWRMDNKGVVHIIWRYRGKIIEVTGYLKDKVFNVGNAWVR | -0.134 |
| HMGEDFPYVAYATDSVRLRSKPSSSGDILAVIRQGDAVLITGSDGNYKIVEYEGRKGYVISAFLSQTP | -0.438 |
| HMSLQEISDLISQAERADQEQLKEVLKQLHQVESGNQPMSKGFLSSALSTLNKYPALITSIGQLLFKLAT | -0.723 |
| HMRSNADALIGRTARVSQTIVENGFGRVALDGDDWKAQAADGSRIEEGQNVIVKDRDSIILTVEKE | 0.256 |
